Changes are numbered by the printed parent chain.
B1: CD3_2 (antibody, human IgG1, lambda)
heavy: EVQLVESGGGLVQPGGSLKLSCAASGFTFNTYAMNWVRQASGKGLEWVGRIRSKYNNYATYYADSVKDRFTISRDDSKSTLYLQMNSLKTEDTAVYYCVRHGNFGNSYVSWFAYWGQGTLVTVSSASTKGPSVFPLAPSSKSTSGGTAALGCLVKDYFPEPVTVSWNSGALTSGVHTFPAVLQSSGLYSLSSVVTVPSSSLGTQTYICNVNHKPSNTKVDKRVEPKSCDKTHTCPPCPAPELCCHPSVFLFPPKPKDTLMISRTPEVTCVVVGLRHEDPEVKFNWYVDGVEVHNAKTKPREEQYCGCYRVVSVLTVLHQDWLNGKEYKCKVSNKALPAPIEKTISKAKGQPREPQVYTLPPSRDELTKNQVSLTCLVKGFYPSDIAVEWESNGQPENNYKTTPPVLDSDGSFFLYSKLTVDKSRWQQGNVFSCSVMHEALHNHYTQKSLSLSPGK
light: QAVVTQEPSLTVSPGGTVTLTCRSSTGAVTTSNYANWVQQKPGQAPRGLIGGTNKRAPWTPARFSGSLLGDKAALTLSGAQPEDEAEYFCALWYSNLWVFGGGTKLTVLGQPKAAPSVTLFPPSSEELQANKATLVCLISDFYPGAVTVAWKADSSPVKAGVETTTPSKQSNNKYAASSYLSLTPEQWKSHRSYSCQVTHEGSTVEKTVAPTECS
B2: CD3_4_YTE (antibody, human IgG1, lambda)
heavy: B1 heavy with M260Y, S262T, T264E, G273D, L274V, R275S
light: B1 light
B3: CD3_1 (antibody, human IgG1, lambda)
heavy: B1 heavy with S247R, V272T, H276D, R309S
light: B1 light
B4: CD3_2_YTE (antibody, human IgG1, lambda)
heavy: B1 heavy with M260Y, S262T, T264E
light: B1 light
B5: CD3_5 (antibody, human IgG1, lambda)
heavy: B1 heavy with H245G, G273D, L274V, R275S, G306S
light: B1 light
B6: IgG4_CD3_9_YTE (antibody)
heavy: EVQLVESGGGLVQPGGSLKLSCAASGFTFNTYAMNWVRQASGKGLEWVGRIRSKYNNYATYYADSVKDRFTISRDDSKSTLYLQMNSLKTEDTAVYYCVRHGNFGNSYVSWFAYWGQGTLVTVSSASTKGPSVFPLAPCSRSTSESTAALGCLVKDYFPEPVTVSWNSGALTSGVHTFPAVLQSSGLYSLSSVVTVPSSSLGTKTYTCNVDHKPSNTKVDKRVESKYGPPCPSCPAPEFCGGPSVFLFPPKPKDTLYITREPEVTCVVVDVSQEDPEVQFNWYVDGVEVHNAKTKPREEQFNSTYRVVSVLTVLHQDWLNGKEYKCKVSNKGLPSSIEKTISKAKGQPREPQVYTLPPSQEEMTKNQVSLTCLVKGFYPSDIAVEWESNGQPENNYKTTPPVLDSDGSFFLYSRLTVDKSRWQEGNVFSCSVMHEALHNHYTQKSLSLSL
light: B1 light
B7: CD3_3_YTE (antibody, human IgG1, lambda)
heavy: B1 heavy with M260Y, S262T, T264E, V272T, H276D
light: B1 light
B8: IgG4_CD3_6_YTE (antibody)
heavy: B6 heavy with G241C
light: B1 light
B9: CD3_4 (antibody, human IgG1, lambda)
heavy: B1 heavy with G273D, L274V, R275S
light: B1 light
B10: IgG4_CD3_8 (antibody)
heavy: B6 heavy with C240L, G241C, Y257M, T259S, E261T
light: B1 light
B11: CD3_DANAPA_YTE (antibody, human IgG1, lambda, N297A)
heavy: EVQLVESGGGLVQPGGSLKLSCAASGFTFNTYAMNWVRQASGKGLEWVGRIRSKYNNYATYYADSVKDRFTISRDDSKSTLYLQMNSLKTEDTAVYYCVRHGNFGNSYVSWFAYWGQGTLVTVSSASTKGPSVFPLAPSSKSTSGGTAALGCLVKDYFPEPVTVSWNSGALTSGVHTFPAVLQSSGLYSLSSVVTVPSSSLGTQTYICNVNHKPSNTKVDKRVEPKSCDKTHTCPPCPAPELLGGPSVFLFPPKPKDTLYITREPEVTCVVVAVSHEDPEVKFNWYVDGVEVHNAKTKPREEQYASTYRVVSVLTVLHQDWLNGKEYKCKVSNKALAAPIEKTISKAKGQPREPQVYTLPPSRDELTKNQVSLTCLVKGFYPSDIAVEWESNGQPENNYKTTPPVLDSDGSFFLYSKLTVDKSRWQQGNVFSCSVMHEALHNHYTQKSLSLSPGK
light: B1 light
B12: CD3_5_YTE (antibody, human IgG1, lambda)
heavy: B11 heavy with L243C, G244C, A273D, A305C, T307C, A337P
light: B1 light
B13: IgG4_CD3_S228P_YTE (antibody)
heavy: B6 heavy with S233P, C240L
light: B1 light
B14: CD3_1_YTE (antibody, human IgG1, lambda)
heavy: B1 heavy with S247R, M260Y, S262T, T264E, V272T, H276D, R309S
light: B1 light
B15: CD3_3 (antibody, human IgG1, lambda)
heavy: B1 heavy with V272T, H276D
light: B1 light
B16: IgG4_CD3_WT_YTE (antibody)
heavy: B6 heavy with C240L
light: B1 light
B17: IgG4_CD3_6 (antibody)
heavy: B6 heavy with G241C, Y257M, T259S, E261T
light: B1 light
B18: IgG4_CD3_8_YTE (antibody)
heavy: B6 heavy with C240L, G241C
light: B1 light

Legend:
hC1q (human) = hC1q (human) (UniProt P02745); assay: SPR Biacore T200; IgG amine-coupled on CM5, hC1q as analyte; response normalized to parental (=100)
[1] = target: Gamma receptors FcγRI, FcγRII, and FcγRIII expressed on THP-1 cells; assay: cell-based or functional assay

Chain of hC1q (human) (P02745 23-245 limits assumed, chain 1 of 3): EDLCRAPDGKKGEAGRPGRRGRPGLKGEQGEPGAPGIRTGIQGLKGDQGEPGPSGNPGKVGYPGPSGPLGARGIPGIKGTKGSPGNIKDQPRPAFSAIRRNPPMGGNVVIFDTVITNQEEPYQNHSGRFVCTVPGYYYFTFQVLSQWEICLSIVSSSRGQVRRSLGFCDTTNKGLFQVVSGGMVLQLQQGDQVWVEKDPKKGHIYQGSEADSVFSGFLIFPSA
Chain of hC1q (human) (P02746 28-253 limits assumed, chain 2 of 3, further chain): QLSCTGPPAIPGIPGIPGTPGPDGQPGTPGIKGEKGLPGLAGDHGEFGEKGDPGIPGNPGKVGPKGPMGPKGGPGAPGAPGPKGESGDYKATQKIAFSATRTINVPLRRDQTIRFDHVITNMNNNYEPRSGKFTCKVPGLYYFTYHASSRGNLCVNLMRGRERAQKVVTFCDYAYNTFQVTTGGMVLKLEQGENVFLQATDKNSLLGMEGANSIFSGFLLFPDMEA
Chain of hC1q (human) (P02747 29-245 limits assumed, chain 3 of 3, further chain): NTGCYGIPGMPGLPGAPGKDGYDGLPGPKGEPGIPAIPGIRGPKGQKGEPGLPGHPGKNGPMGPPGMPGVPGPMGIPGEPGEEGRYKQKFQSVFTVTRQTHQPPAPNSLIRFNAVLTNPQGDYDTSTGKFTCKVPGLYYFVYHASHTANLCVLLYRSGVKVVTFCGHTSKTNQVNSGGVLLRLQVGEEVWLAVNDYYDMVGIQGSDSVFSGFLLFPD

Binder	Maximum response at 20 nM hC1q (RU) (hC1q (human))	Maximum response in RGA assay (LU) [1] [LU]
B1	7	25500
B2		16500
B3		24700
B4		11900
B5		19900
B6		5610
B7		13100
B8		7910
B9	9	24900
B10		7040
B11		12300
B12		13100
B13		34900
B14		12000
B15	7	23200
B16		31800
B17		12000
B18		6450
